Columns and labels:
HLA-A*32:01 = assay: IEDB peptide-MHC binding, purified MHC/competitive/radioactivity; filed as Kd, often an IC50 or EC50 that approximates it; ≥ and ≤ were set here for values at or beyond the usual limits of such assays
HLA-A*31:01 = assay: IEDB peptide-MHC binding, purified MHC/direct/fluorescence; filed as Kd, often an IC50 or EC50 that approximates it; ≥ and ≤ were set here for values at or beyond the usual limits of such assays; details: source organism: Entamoeba histolytica HM-1:IMSS
HLA-A*03:01 = assay: as above
HLA-A*30:02 = assay: IEDB peptide-MHC binding, purified MHC/competitive/radioactivity; filed as Kd, often an IC50 or EC50 that approximates it; ≥ and ≤ were set here for values at or beyond the usual limits of such assays
HLA-A*01:01 [1] = assay: as above
HLA-A*29:02 = assay: as above
HLA-A*26:01 = assay: as above
HLA-A*24:02 = assay: as above
HLA-A*23:01 = assay: as above
HLA-A*02:01 [2] = assay: IEDB peptide-MHC binding, purified MHC/direct/fluorescence; filed as Kd, often an IC50 or EC50 that approximates it; ≥ and ≤ were set here for values at or beyond the usual limits of such assays
HLA-A*69:01 = assay: as above
HLA-A*02:01 [3] = assay: IEDB peptide-MHC binding, purified MHC/competitive/fluorescence; filed as Kd, often an IC50 or EC50 that approximates it; ≥ and ≤ were set here for values at or beyond the usual limits of such assays
HLA-B*08:01 = assay: IEDB peptide-MHC binding, purified MHC/competitive/radioactivity; filed as Kd, often an IC50 or EC50 that approximates it; ≥ and ≤ were set here for values at or beyond the usual limits of such assays
HLA-A*01:01 [4] = assay: IEDB peptide-MHC binding, purified MHC/direct/fluorescence; filed as Kd, often an IC50 or EC50 that approximates it; ≥ and ≤ were set here for values at or beyond the usual limits of such assays; details: source organism: Homo sapiens
HLA-B*27:05 = assay: as above; details: source organism: Homo sapiens
HLA-A*11:01 = assay: as above; details: source organism: Homo sapiens
[5] = source organism: Vaccinia virus WR
[6] = source organism: SARS coronavirus Tor2
[7] = source organism: Pseudomonas aeruginosa
[8] = source organism: Dengue virus 4 Philippines/H241/1956
[9] = source organism: Dengue virus 2 Jamaica/1409/1983
[10] = source organism: Giardia lamblia ATCC 50803
[11] = source organism: Mammarenavirus brazilense
[12] = source organism: Lassa virus Josiah

Sequence | Kd (HLA-A*30:02; [6]) | Kd (HLA-A*01:01 [1]; [6]) | Kd (HLA-A*29:02; [6]) | Kd (HLA-A*26:01; [6]) | Kd (HLA-A*24:02; [6]) | Kd (HLA-A*23:01; [6]) | further results
ALNHLVLSL | – | – | – | – | – | – | Kd (HLA-A*32:01; [5]): 41.4 nM
ANKWYFAPR | – | – | – | – | – | – | Kd (HLA-A*31:01): 1.4 nM; Kd (HLA-A*03:01; source organism: Entamoeba histolytica HM-1:IMSS): ≥ 20000 nM
DEEGNLLDSY | 8980 nM | ≥ 92600 nM | 7260 nM | ≥ 71600 nM | ≥ 70300 nM | ≥ 58100 nM | –
DMYDQQLSV | – | – | – | – | – | – | Kd (HLA-A*02:01 [2]; [7]): 262 nM; Kd (HLA-A*69:01; [7]): 32 nM
DSKEGFFTY | 237 nM | 200 nM | 663 nM | 993 nM | ≥ 77600 nM | ≥ 77800 nM | –
DYAEISFML | 440 nM | ≥ 22500 nM | 100 nM | ≥ 68900 nM | ≥ 105000 nM | ≥ 90700 nM | –
EDMLKVWNRV | – | – | – | – | – | – | Kd (HLA-A*32:01; [8]): 19600 nM
EHSWNADLY | 45.1 nM | ≥ 69400 nM | 295 nM | 4410 nM | ≥ 77600 nM | ≥ 77800 nM | –
EIQLKIDKL | – | – | – | – | – | – | Kd (HLA-A*02:01 [3]; source organism: Variola virus): 3590 nM
ELINKFVEL | – | – | – | – | – | – | Kd (HLA-B*08:01; [5]): 1040 nM
ELKEKSVKF | – | – | – | – | – | – | Kd (HLA-B*08:01; [5]): 3.19 nM
EQMQRKHGGM | – | – | – | – | – | – | Kd (HLA-B*08:01; source organism: Dengue virus 1 Brazil/97-11/1997): 86 nM
ETNDLVTNV | – | – | – | – | – | – | Kd (HLA-A*02:01 [3]; source organism: Variola virus): 3240 nM
EWSVATFYLF | 1730 nM | 1160 nM | 17.4 nM | – | 27.2 nM | 0.0328 nM | –
FKGKTVWFVP | – | – | – | – | – | – | Kd (HLA-A*32:01; [9]): ≥ 69900 nM
FLIGVYQQY | – | – | – | – | – | – | Kd (HLA-A*02:01 [2]; [10]): ≥ 20000 nM; Kd (HLA-A*69:01; [10]): ≥ 20000 nM
FLMGFNRDV | – | – | – | – | – | – | Kd (HLA-A*69:01; source organism: Mycobacterium tuberculosis): 1760 nM

Sequence | Kd (HLA-A*30:02; [6]) | Kd (HLA-A*01:01 [1]; [6]) | Kd (HLA-A*29:02; [6]) | Kd (HLA-A*26:01; [6]) | Kd (HLA-A*24:02; [6]) | Kd (HLA-A*23:01; [6]) | further results
FTFKRTSGSSV | – | – | – | – | – | – | Kd (HLA-A*02:01 [3]; source organism: Influenza A virus H3N2): 930 nM
FYFTNDVSF | ≥ 96800 nM | 17100 nM | 413 nM | ≥ 22300 nM | 2800 nM | 1490 nM | –
GFELTSMKY | 1840 nM | 1750 nM | 132 nM | ≥ 81500 nM | ≥ 77600 nM | ≥ 77800 nM | –
GRIDKPILK | – | – | – | – | – | – | Kd (HLA-A*01:01 [4]): ≥ 53500 nM; Kd (HLA-B*27:05): 790 nM; Kd (HLA-A*11:01): 8150 nM; Kd (HLA-A*03:01; source organism: Homo sapiens): 13500 nM
GSDDIRRLV | – | – | – | – | – | – | Kd (HLA-A*30:02; [11]): ≥ 76900 nM; Kd (HLA-A*01:01 [1]; [11]): ≥ 44500 nM; Kd (HLA-A*29:02; [11]): ≥ 78900 nM; Kd (HLA-A*26:01; [11]): ≥ 77900 nM; Kd (HLA-A*24:02; [11]): ≥ 77500 nM; Kd (HLA-A*23:01; [11]): ≥ 77700 nM
HHANEYRQY | 6960 nM | ≥ 78100 nM | 12700 nM | ≥ 102000 nM | ≥ 33400 nM | ≥ 77800 nM | –
HMVVKSALL | 954 nM | 15100 nM | 511 nM | 13100 nM | 12200 nM | 13900 nM | –
HSYGIDLKSY | 7.12 nM | 80.6 nM | 29.2 nM | 451 nM | ≥ 56400 nM | ≥ 70000 nM | –
ICLSGDGWPY | – | – | – | – | – | – | Kd (HLA-A*30:02; [12]): 678 nM; Kd (HLA-A*01:01 [1]; [12]): 6320 nM; Kd (HLA-A*29:02; [12]): 371 nM; Kd (HLA-A*26:01; [12]): ≥ 69700 nM; Kd (HLA-A*24:02; [12]): ≥ 70300 nM; Kd (HLA-A*23:01; [12]): ≥ 70000 nM
IDNVHTWTEQ | – | – | – | – | – | – | Kd (HLA-A*32:01; [8]): 9850 nM
IFFASFYYIW | 12100 nM | 1270 nM | 31.6 nM | 1370 nM | 24.3 nM | 0.529 nM | –
IGMNSRSTSL | – | – | – | – | – | – | Kd (HLA-B*08:01; [9]): 107 nM
IIIPFIAYFV | – | – | – | – | – | – | Kd (HLA-A*02:01 [3]; source organism: Variola virus): 50.5 nM
ILHLILWIL | – | – | – | – | – | – | Kd (HLA-A*02:01 [3]; source organism: Influenza A virus (A/Memphis/1/1978(H1N1))): 6000 nM
ILSDDAVVCY | 2100 nM | 10.2 nM | 320 nM | ≥ 38800 nM | ≥ 70300 nM | ≥ 70000 nM | –
KLGNLLLLI | – | – | – | – | – | – | Kd (HLA-A*32:01; [5]): 0.716 nM
KLLRRPFSL | – | – | – | – | – | – | Kd (HLA-B*08:01; [5]): 0.362 nM
